Assays:
[1] = target: the molecule itself; assay: SDS-PAGE and SDD-AGE with western blotting
[2] = target: Orb2 filaments purified from adult heads (Drosophila melanogaster (endogenous in …, UniProt Q9VSR3 1-704)); assay: seeded aggregation

binding result [2]: binds
B1: Orb2 (Drosophila CPEB) purified from adult heads (natural protein)
chain: MDSLKLPKANSATSSASGSNSNLSGSTSASASAATSPTSSGTAVGGILSGAPKSPPGLGSSTPISVRFNANEESLDDILQSFHHSKHSPSGGASGGGDASPTSNLLGMKNNGLGLVVGNCDSLSSSPSQPQMHAGSASLFGNDEVSLRNNFMQAGGFFNRKSCGGLPNLNLNKPPQLHQQQHQQQHQQHQQHQQQQQLHQHQQQLSPNLSALHHHHQQQQQLRESGGSHSPSSPGGGGGGSPYNGSQAGCSSGGISPIPPQMGVSPKYRRSISFPIKGNSPTAIYGNMHMDGMGSGHMNIPTLSIGNGGGGGSTGMVSAGATGGGDAPYLGNSYGNMMTSNGQMHHGGGLDNSLCDYMRNMSLGGNGGGDGSNSMSLMQDRMRVMGGPKHLSEADAMAIAASGNDPSVYLNALKMGSPSRLSPHSPHSPIQGGNGGNVGDGTARFSRKVFVGGLPPDIDEDEITTSFRRFGPLVVDWPHKAESKSYFPPKGYAFLLFQDESSVQQLIDSCITDEDKLYLCVSSPTIKDKAVQIRPWRLADADYVLDATMSLDPRKTVFVGGVPRPLKAFELAMIMDRLYGGVCYAGIDTDPELKYPKGAGRVAFSNQQSYIAAISARFVQLQHGDIDKRVEVKPYVLDDQMCDECEGQRCGGKFAPFFCANVTCLQYYCEHCWAVIHSRPGREYHKPLVKEGADRPRAVPFRWC
binding result [1]: binds
